This note sets out measurements from patent publication US20200148781A1 (HELMHOLTZ ZENTRUM M NCHEN DEUTSCHES FORSCHUNGSZENTRUM F R …, published 2020).

This assay has as its target T1, CD73 protein from lysates of U138 glioblastoma cells (human, UniProt P21589 27-549).
T1 construct: Same endogenous protein as m2, but solubilised in cell lysate for immunoprecipitation
T1 sequence (looked up): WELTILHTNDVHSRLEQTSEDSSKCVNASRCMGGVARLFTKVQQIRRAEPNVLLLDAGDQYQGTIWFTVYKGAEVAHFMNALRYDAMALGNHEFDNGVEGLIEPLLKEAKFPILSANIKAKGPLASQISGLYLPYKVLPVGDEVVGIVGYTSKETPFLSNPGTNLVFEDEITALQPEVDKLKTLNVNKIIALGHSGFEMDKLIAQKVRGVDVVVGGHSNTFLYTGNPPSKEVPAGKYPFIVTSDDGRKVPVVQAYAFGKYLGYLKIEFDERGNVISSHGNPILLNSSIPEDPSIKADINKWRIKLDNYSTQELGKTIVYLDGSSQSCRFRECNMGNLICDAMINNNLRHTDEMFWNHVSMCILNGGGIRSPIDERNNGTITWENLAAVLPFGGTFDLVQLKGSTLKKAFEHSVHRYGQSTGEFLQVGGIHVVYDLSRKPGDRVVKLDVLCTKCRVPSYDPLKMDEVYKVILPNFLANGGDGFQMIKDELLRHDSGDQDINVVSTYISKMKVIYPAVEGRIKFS
Kind of assay: immunoprecipitation from cell lysate, immunoblot with a commercial CD73 mAb. On the procedure:
In this example, mAb 22E6 binding affinity was characterized (FIG. 3). It was shown that mAb 22E6 recognizes CD73 protein on cancer cells. Using a special flow cytometry technique, a fluorescence-activated cell sorting (FACS) with 22E6 and an anti-rat-IgG-specific, fluorophore-labeled secondary mAb, it was shown that the protein recognized by the 22E6 mAb of the invention is present on the surface of human cancer cells of a total of approx. 30 tested cell lines. U138 MG and GBM20 are glioblastoma cell lines, MDA-MB231 and T47D are human breast cancer cell lines. In order to compare the specificity of mAb 22E6 with the specificity of a commercial CD73 mAb an immunoblot with the same cell lines (U138 MG, GBM20, MDA-MB231 and T47D) was performed using the commercial CD73 mAb as shown in FIG. 3B.
(In general: Immunoblotting shows a protein as a band on a membrane.)

B1: mAb 22E6 (antibody, V domains shown)
VH: EVQLVESGGGLVQPGRSMKLSCAASGFTFSFYYMAWVRQAPTKGLEWVASISTGGGNTYYRDSVKGRFTISRDDAKSTLYLQMDSLRSEETATYYCARHGGDYYGYRGGYFDYWDQGVMVTVSS
VL: DIQMTQTPSSMPASLGERVTISCRASQGINNYLNWYQQKPDGTIKPLIYYTSNLQSGVPSRFSGSGSGTDYSLTISSLEPEDFAMYYCQQYDNSPYTFGAGTKLELK
notes: Rat monoclonal antibody from a hybridoma (rats immunized with EVs of the glioblastoma line GBM20); It was detected with an anti-rat-IgG secondary mAb; also called 22E6 mAb; monoclonal antibody termed "22E6"
B1: the binding result is reported as “binds”.
